Results on 6 molecules are retold here after US20260102487A1 (Amgen, published 2026).

Broadly, the EC50 (read off the curve) is the concentration at which the effect is half-maximal.

To fix the notation:
T1: human IL-2Rα (Sino Biological) (human, UniProt P01589 22-213, limits assumed)
T1 construct: Bought recombinant protein; also called IL2RA; CD25
T1 sequence: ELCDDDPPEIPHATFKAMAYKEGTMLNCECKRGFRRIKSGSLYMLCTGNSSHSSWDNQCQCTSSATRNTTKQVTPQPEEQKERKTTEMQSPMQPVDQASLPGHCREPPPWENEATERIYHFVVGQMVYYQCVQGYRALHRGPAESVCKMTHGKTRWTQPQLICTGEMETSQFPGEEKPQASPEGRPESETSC

T2: IL-4R (Sino Biological) (UniProt P24394 26-232)
T2 construct: also called IL-4Ra
T2 sequence (looked up): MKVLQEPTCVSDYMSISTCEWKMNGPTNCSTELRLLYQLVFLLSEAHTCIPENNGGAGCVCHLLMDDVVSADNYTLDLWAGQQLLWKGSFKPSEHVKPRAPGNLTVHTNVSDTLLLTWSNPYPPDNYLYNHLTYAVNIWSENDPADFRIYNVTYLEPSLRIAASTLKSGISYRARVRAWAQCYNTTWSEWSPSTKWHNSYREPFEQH

T3: IL-7R (Sino Biological) (UniProt P16871 21-239)
T3 sequence (looked up): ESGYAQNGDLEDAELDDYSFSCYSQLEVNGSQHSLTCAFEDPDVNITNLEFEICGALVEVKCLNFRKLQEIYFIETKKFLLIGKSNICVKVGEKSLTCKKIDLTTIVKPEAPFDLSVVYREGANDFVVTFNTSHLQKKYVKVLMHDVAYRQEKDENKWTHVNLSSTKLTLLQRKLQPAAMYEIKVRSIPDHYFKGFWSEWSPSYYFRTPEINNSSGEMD

T4: human IL-2Rβγ receptor on primary human T-cells and NK-cells (PBMCs) (human, UniProt P14784 27-551; P31785 23-369)
T4 construct: Endogenous receptor on primary cells; also called dimeric IL-2Rβγ receptor complex
T4 sequence 1: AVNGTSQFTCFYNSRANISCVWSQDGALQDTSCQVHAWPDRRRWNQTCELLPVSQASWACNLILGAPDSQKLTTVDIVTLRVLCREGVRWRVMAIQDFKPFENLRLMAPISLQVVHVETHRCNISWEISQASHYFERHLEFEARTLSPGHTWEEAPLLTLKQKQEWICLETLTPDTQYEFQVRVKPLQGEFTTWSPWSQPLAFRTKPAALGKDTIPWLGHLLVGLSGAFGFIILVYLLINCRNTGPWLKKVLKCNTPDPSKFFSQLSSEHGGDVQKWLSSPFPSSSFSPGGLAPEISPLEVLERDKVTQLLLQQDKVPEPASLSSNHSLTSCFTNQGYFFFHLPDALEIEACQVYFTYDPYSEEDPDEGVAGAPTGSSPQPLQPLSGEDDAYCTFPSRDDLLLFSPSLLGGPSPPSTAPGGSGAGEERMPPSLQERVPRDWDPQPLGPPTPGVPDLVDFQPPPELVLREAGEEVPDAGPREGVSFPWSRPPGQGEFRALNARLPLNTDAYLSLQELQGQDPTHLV
T4 sequence 2: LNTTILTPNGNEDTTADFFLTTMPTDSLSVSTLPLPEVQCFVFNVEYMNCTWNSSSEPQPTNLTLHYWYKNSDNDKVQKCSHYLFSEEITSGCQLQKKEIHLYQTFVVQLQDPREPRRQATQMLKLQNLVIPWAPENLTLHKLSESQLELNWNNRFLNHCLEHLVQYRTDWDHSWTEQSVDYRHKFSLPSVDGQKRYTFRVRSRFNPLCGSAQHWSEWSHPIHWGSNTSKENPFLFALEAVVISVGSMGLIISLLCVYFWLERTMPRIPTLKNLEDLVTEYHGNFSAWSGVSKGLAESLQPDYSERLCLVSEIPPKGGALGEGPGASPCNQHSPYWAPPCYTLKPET

B1: BsAb-2 (IL2RB_F09G**IL2RG_F16B) (bispecific antibody, human IgG4, V domains shown)
V domain 1: QVQLQESGPGLVKSSETLSLTCTVSGGSISSSDWWSWVRQPPGKGLEWIGEIDHSGSTNYNPSLMSRVTISVDKSKNQFSLKLSSVTAADTAVYFCARGSWELTDAFDIRGQGTLVTVSS
V domain 2: QVQLVESGGGLVKPGGSLRLSCAASGFTFSDYYMSWIRQAPGKGLEWVSYISSSGSTIYYADSVKGRFTISRDNAKNSLYLQMNSLRAEDTAVYYCARGDAVSITGDYRGQGTLVTVSS
notes: Heavy chain-only bispecific on silenced, stabilised human IgG4 Fc, knobs-into-holes, no light chains; not shown: C-terminal His-tag on the knob chain
B2: BsAb-6 (IL2RB_F18E**IL2RG_F16A) (bispecific antibody, human IgG4, V domains shown)
V domain 1: QVQLVESGGGVVQPGRSLRLSCAASGFTFSSYGMHWVRQAPGKEREWVAVISYDGSNKYYTDSVKGRFTISRDNSKNTLYLEMNSLRAEDTAVYYCARDLDYDVLTGDPVGGFDIWGQGTLVTVSS
V domain 2: B1 V domain 2 with Y50S, S56D, K65Q, I70L, K76E, Y80F
notes: as for B1
B3: BsAb-4 (IL2RB_F09G**IL2RG_F18A) (bispecific antibody, human IgG4, V domains shown)
V domain 1: B1 V domain 1
V domain 2: QVQLVESGGDLVKPGGSLRLSCAASGFTFSDYYMSWLRQAPGKELEWVSHISSSGTTTYYADSVEGRFTITRDNAKNSLYLQMNSLRAEDTAVYYCARGAAVAPGFDSRGQGTLVTVSS
notes: as for B1
B4: BsAb-1 (IL2RB_F09C**IL2RG_F16A) (bispecific antibody, human IgG4, V domains shown)
V domain 1: B1 V domain 1 with S14P, E16G, T23A, A97G, T104S
V domain 2: B1 V domain 2 with Y50S, S56D, K65Q, I70L, K76E, Y80F
notes: as for B1
B5: BsAb-5 (IL2RB_F09K**IL2RG_F16B) (bispecific antibody, human IgG4, V domains shown)
V domain 1: B1 V domain 1 with G8S, S14P, D33N, D53S, M65K, K82R, A97G
V domain 2: B1 V domain 2
notes: as for B1
B6: BsAb-3 (IL2RB_F09G**IL2RG_F16C) (bispecific antibody, human IgG4, V domains shown)
V domain 1: B1 V domain 1
V domain 2: B1 V domain 2 with S30N, Y50H, I70V, K76N, N84H
notes: as for B1

Changes are numbered by the printed parent chain.

For the first test, the target named is T1, human IL-2Rα (Sino Biological). Kind of test: Octet (BLI) off-rate, antibody captured on AHC sensors. The method, then:
(§1) All off-rate measurements were performed on an Octet Qk384 instrument (ForteBio), in 96-well microplates at 25° C. using anti-human IgG Fc capture (AHC, 18-5005) sensors with a shake speed of 1000 rpm. For off-rate determination, the antibodies/antibody fragments were loaded on the AHC sensors at 5 μg/mL. Following a short baseline in kinetics buffer (0.02% Tween20, 0.1% BSA, 0.05% sodium azide, 1X PBS). Offrate measurements were done for the following: human IL-2Rβ (AcroBiosystems), human IL-2Ry (Sino Biological), cynomolgus IL-2RP (Sino Biological), cynomolgus IL-2Rγ (expressed and purified in house using ExpiCHO expression system followed by Ni-NTA His-tag purification), mouse IL-2Rγ (Sino Biological), mouse IL-2Rβ (Sino Biological), human IL-2Rα (Sino Biological), IL-4R (Sino Biological), IL-7R (Sino Biological), IL-9R (R&D Systems) and IL-21R (Sino Biological). The following antibodies were used as positive controls to verify target binding and reagent quality: anti-human IL-9R (R&D Systems), anti-human IL-21R (R&D Systems), anti-human IL-7R (R&D Systems) and anti-human IL-4Ra (R&D Systems). The loaded sensors were then submerged in wells containing antigen at 100 nM concentration for association step. Dissociation was monitored in kinetics buffer. The capture surfaces were regenerated for 60 s. ForteBio data analysis software was used to fit the data to a 1:1 binding model to extract an association rate and dissociation rate.
(In BLI a coated tip is dipped into the sample, and binding shifts an interference pattern.)
B1: the binding result is on record as “no binding (tested: antigen at 100 nM)”.

Regarding B2, the binding result is listed as “no binding (tested: antigen at 100 nM)”.

Regarding B3, the binding result is “no binding (tested: antigen at 100 nM)”.

Consider B4, for which the binding result is given as “no binding (tested: antigen at 100 nM)”.

B5: the binding result is reported as “no binding (tested: antigen at 100 nM)”.

In the case of B6, the binding result is listed as “no binding (tested: antigen at 100 nM)”.

A further test has as its target T2, IL-4R (Sino Biological). The test is described as above. The procedure:
as §1
B1: the binding result is “no binding (tested: antigen at 100 nM)”.

In the case of B2, the binding result is listed as “no binding (tested: antigen at 100 nM)”.

B3: the binding result is on record as “no binding (tested: antigen at 100 nM)”.

For the molecule B4, the binding result was “no binding (tested: antigen at 100 nM)”.

Take B5: the binding result is listed as “no binding (tested: antigen at 100 nM)”.

For the molecule B6, the binding result was “no binding (tested: antigen at 100 nM)”.

For a further test, the target named is T3, IL-7R (Sino Biological). Described as above. The procedure: as §1
Consider B1, for which the binding result is listed as “no binding (tested: antigen at 100 nM)”.

On to B2, for which the binding result is on record as “no binding (tested: antigen at 100 nM)”.

On to B3, for which the binding result is recorded as “no binding (tested: antigen at 100 nM)”.

For B4, the binding result is given as “no binding (tested: antigen at 100 nM)”.

Consider B5, for which the binding result was “no binding (tested: antigen at 100 nM)”.

In the case of B6, the binding result was “no binding (tested: antigen at 100 nM)”.

The target in the next test is T4, human IL-2Rβγ receptor on primary human …. Kind of test: flow cytometry cell binding on human CD4+ T-cells (PBMC), gMFI as fold over secondary antibody only. The procedure: (§2) All washes and dilutions of cells, antibodies, and reagents were performed using flow buffer (1X PBS, 1% BSA, 0.1% NaN3, pH 7.4). Staining was performed in a round-bottom 96-well plate (Corning) seeded at 100,000 cells/well, and all incubations were performed at 4° C. or on ice. […] The cells were washed twice with 200 μL flow buffer. The cells were then incubated for 30 minutes with detection antibody (Goat F(ab′)2 Anti-Human IgG-PE, Southern Biotech) at 0.625 μg/mL in flow buffer. Following 2 more washes, the cells were resuspended in a final volume of 150 μL of flow buffer. The cells were analyzed on a BD FACSCelesta or a Guava easyCyte 8-HT flow cytometer. At least 3000 events were collected, and PE geometric mean fluorescence intensity was plotted as a fold over background (cells incubated with secondary detection antibody only). In some secondary screens involving human or cynomolgus PBMCs, an additional CD4 antibody (BioLegend) and/or CD8 antibody (BioLegend) was included to further characterize cell binding.
Turning to B1, the concentration for a half-maximal effect (EC50 (read off the curve)) is approximately 4 nM.

On to B2, for which the 50% effective concentration (EC50 (read off the curve)) is approximately 7 nM.

For B3, the concentration giving a half-maximal response (EC50 (read off the curve)) was approximately 4 nM.

As for B4, the “EC50 (read off the curve)” value is approximately 7 nM.

As for B5, the binding result was “binds”.

In the case of B6, the “EC50 (read off the curve)” value was approximately 7 nM.

Another test has as its target T5, cynomolgus IL-2Rβγ receptor on cynomolgus T-cells (PBMCs) (cynomolgus).
T5 construct: whole, on cells; Endogenous receptor on primary cynomolgus cells
Kind of test: flow cytometry cell binding on cynomolgus CD8+ T-cells (PBMC), gMFI as fold over secondary antibody only. The procedure:
as §2
In general terms: Flow cytometry measures light scatter and fluorescence of single cells or particles in a stream.
B1: the concentration for a half-maximal effect (EC50 (read off the curve)) was approximately 2 nM.

Regarding B2, the “EC50 (read off the curve)” value is approximately 20 nM.

Regarding B3, the “EC50 (read off the curve)” value was approximately 10 nM.

Turning to B4, the “EC50 (read off the curve)” value is approximately 20 nM.

For B5, the “EC50 (read off the curve)” value was approximately 4 nM.

B6: the concentration for a half-maximal effect (EC50 (read off the curve)) was approximately 10 nM.
